Reference: patent US11857697B2, “Compositions and methods for obtaining 3-dimensional lung-like epithelium and related uses thereof” (THE REGENTS OF THE UNIVERSITY OF MICHIGAN, priority 2017, dated 2024)
Entries after “also recorded” stand apart in the source; their conditions may differ.

B1: Recombinant Human Fibroblast Growth Factor 10 (protein, UniProt O15520 38-208, looked up)
Fibroblast growth factor 10: QALGQDMVSPEATNSSSSSFSSPSSAGRHVRSYNHLQGDVRWRKLFSFTKYFLKIEKNGKVSGTKKENCPYSILEITSVEIGVVAVKAINSNYYLAMNKKGKLYGSKEFNNDCKLKERIEENGYNTYASFNWQHNGRQMYVALNGKGAPRRGQKTRRKNTSAHFLPMVVHS

Experiments:
[1] = system: 12 week human fetal distal epithelial lung buds; test: Isolated human fetal lung bud culture in Matrigel: growth/expansion; format: cell-based; settings: FGF10 500 ng/mL
Source text: All research utilizing human fetal tissue was approved by the University of Michigan institutional review board. Normal human fetal lungs were obtained from the University of Washington Laboratory of Developmental Biology, and epithelial lung buds were dissected as described below. All experiments were repeated using tissues from 3 individual lungs; 84 day post fertilization of unknown gender, 87 day post fertilization male, and 87 day post fertilization of unknown gender. All tissues were shipped in Belzer's solution at 4 degrees Celsius and were processed and in culture within 24 hours of isolation.
(§1) Isolated mouse buds were cultured in 4-6 μl droplets of matrigel, covered with media, and kept at 37 degrees Celsius with 5% Carbon Dioxide. Isolated human fetal lung buds were cultured in 25-50 μl droplets of matrigel, covered with media, and kept at 37 degrees Celsius with 5% Carbon Dioxide.
Distal regions of 12 week fetal lungs were cut into ˜2 mm sections and incubated with dispase, 100% FBS and then 10% FBS as described above, and moved to a sterile petri dish. Mesenchyme was removed by repeated pipetting of distal lung pieces after dispase treatment. Buds were washed with DMEM until mesenchymal cells were no longer visible in the media. Buds were then moved to a 1.5 mL eppendorf tube containing 200 uL of Matrigel, mixed using a p200 pipette, and plated in ˜20 uL droplets in a 24 well tissue culture plate. Plates were placed at 37 degrees Celsius with 5% CO2 for 20 minutes while droplets solidified. 500 uL of media was added to each well containing a droplet. Media was changed every 2-3 days.
All mouse bud, human fetal bud, and hPSC-derived human lung organoids were grown in low-serum basal media (basal media) with added growth factors. […]

[2] = system: E13.5 mouse distal epithelial lung buds; test: Isolated E13.5 mouse distal lung bud culture in Matrigel droplet: growth/expansion; format: cell-based; settings: FGF10 500 ng/mL (50-fold excess), up to 5 days
Description: as §1
Mouse buds were dissected from E13.5 embryos. For experiments using Sox9CreER; Rosa^Tomato/Tomato mice, 50 ug/g of tamoxifen was dissolved in corn oil and given by oral gavage on E12.5, 24 hours prior to dissection. Briefly, in sterile environment, whole lungs were placed in 100% dispase (Corning Cat#354235) on ice for 30 minutes. Lungs were then transferred using a 25 uL wiretrol tool (Drummond Scientific Cat#S5-000-2050) to 100% FBS (Corning Cat#35-010-CV) on ice for 15 minutes, and then transferred to a solution of Dulbecco's Modified Eagle Medium: Nutrient Mixture F12 (DMEM/F12, ThermoFisher SKU#12634-010) with 10% FBS and 1× Pennicillin-Streptomycin (ThermoFisher Cat#15140122) on ice. To dissect buds, a single lung or lung lobe was transferred by wiretrol within a droplet of media to a 100 mm sterile petri dish. Under a dissecting microscope, the mesenchyme was carefully removed and epithelial bud tips were torn away from the bronchial tree using tungsten needles (Point Technologies, Inc.). Care was taken to remove the trachea and any connective tissue from dissected lungs. Isolated bud tips were picked up using a p20 pipette and added to an eppendorf tube with cold Matrigel (Corning Ref#354248) on ice. The buds were picked up in a p20 pipette with 4-6 uL of Matrigel and plated on a 24-well tissue culture well (ThermoFisher Cat#142475). The plate was moved to a tissue culture incubator and incubated for 5 minutes at 37 degrees Celsius and 5% CO2 to allow the Matrigel droplet to solidify. 500 uL of media was then added to the dish in a laminar flow hood. Media was changed every 2-3 days.
All mouse bud, human fetal bud, and hPSC-derived human lung organoids were grown in low-serum basal media (basal media) with added growth factors. Basal media consisted of Dulbecco's Modified Eagle Medium: Nutrient Mixture F12 (DMEM/F12, ThermoFisher SKU#12634-010) supplemented with 1× N2 supplement (ThermoFisher Catalog#17502048) and […] B27 supplement (ThermoFisher Catalog#17504044), along with 2 mM Glutamax (ThermoFisher Catalog#35050061), 1× Pennicillin-Streptomycin (ThermoFisher Cat#15140122) and 0.05% Bovine Serum Albumin (BSA; Sigma product# A9647). BSA was weighed and dissolved in DMEM F/12 media before being passed through a SteriFlip 0.22 uM filter (Millipore Item# EW-29969-24) and being added to basal media. Media was stored at 4 degrees Celsius for up to 1 month. On the day of use, basal media was aliquoted and 50 ug/mL Ascorbic acid and 0.4 uM Monothioglycerol was added. […]

| Molecule | Tissue expansion / cyst formation of bud tips ([1]; Y27632 10 uM) | Bud growth [2] | Growth of human fetal lung buds ([1]; compared to basal media) |
| --- | --- | --- | --- |
| C[C@@H](N)[C@H]1CC[C@H](C(=O)Nc2ccncc2)CC1 [Y27632, reference compound] | in combination with FGF10, but not alone, promoted growth of buds into larger cyst-like structures; also recorded: did not lead to tissue expansion | – | – |
| B1 | – | modest growth of buds | only modest growth; also recorded: expansion of the tissue was not robust |
